The values that follow come from PMC6391317.

In series [1] the target is T1, thrombin (alpha-thrombin) (human, UniProt P00734;P00734 328-363;364-622). Kind of series: capillary electrophoresis; simulated body plasma ionic buffer (SBP); exosite II; CE: 400 nM thrombin + 100 nM fluorescein-labeled aptamer in simulated body plasma ionic buffer (SBP; composition and pH not given in the material), 37 C for 2 m.
In series [2] the target is T1, thrombin (alpha-thrombin). Put plainly: capillary electrophoresis; simulated body plasma ionic buffer (SBP); exosite I; CE: 400 nM thrombin + 100 nM fluorescein-labeled aptamer in simulated body plasma ionic buffer (SBP; composition and pH not given in the material), 37 C for 2 m.

B1: HD22 (structured_DNA)
DNA: AGTCCGTGGTAGGGCAGGTTGGGGTGACT
For orientation: Kd means the equilibrium constant for the complex coming apart. For B1, the dissociation constant (Kd) in series [1] was 97.6 nM.

B2: HD1 (structured_DNA)
DNA: GGTTGGTGTGGTTGG
For the molecule B2, in series [2], the dissociation constant Kd was 258 nM.
